Results taken from patent US20120148657A1, “Lipoxygenase and Its Use in Wound Healing” (priority 2009, published 2012).

Experiments:
epithelial Axolotl cells = assay: In vitro wound healing model: proliferation of epithelial cells from Axolotl skin biopsies (Celltiter blue); assay type: cell-based; conditions: for Epithelial cell proliferation: 1 μM MK-886 and 60 μM NDGA, respectively, plates incubated two days, Celltiter blue fluorescence
Source text: In order to investigate the influence of endogenous lipoxygenase activity on the migration and proliferation of epithelial Axolotl cells, skin biopsies with 2 mm diameter were taken form Axolotl tail skin. The skin biopsies were placed in cell culture dishes coated with bovine collagen I to allow for cell migration and proliferation in an in vitro wound healing model. The wound healing is observable by […] of epithelial cell growing from borders of the skin biopsies. The proliferation rates were determined by addition of Celltiter blue (Promega), an assay for detection of metabolic activity as an indirect measurement of cell proliferation based on Resazurin/Resofurin. Two known lipoxygenase inhibitors for the human lipoxygenase were used to examine the effect of lipoxygenase activity on cell proliferation (1 μM MK-886 and 60 μM NDGA, respectively). […] That is, the plates were incubated for two days to ensure proliferation of epidermal cells. Then, the number of metabolizing cells was determined by Resozuran-Resofurin exchange (Celltiter blue, Promega, Madison, USA). 2 μl Resozuran solution was added to each well for two hours and the fluorescence was read in a multiplate reader at 520 nm. The detected fluorescence was expressed in relative fluorescent units (RFU), means and standard deviation were calculated from triplicates with Microsoft Excel and tested for statistical significance using student's T-test. Experiments were repeated at three independent times to ensure reproducibility.

[1] = tested on: transiently transfected cell populations; assay: Scratch assay of transiently transfected cell populations treated with lipoxygenase inhibitor; assay type: cell-based, human
Method: (§1) The coding sequence of AmbLOXe was subcloned in frame into the mammalian expression vector pTriEx-1 (Novagen). Plasmids were purified from transformed DH5α using the GenElute plasmid purification Kit (Sigma). Human osteosarcoma cells U2-OS or human spontaneously immortalized keratinocyte cells HaCaT (ATCC) were seeded into 100 mm cell culture dishes and grown over night to 40-50% confluence. Cells were transiently transfected with Fugene6 (Roche, Mannheim, Germany) following the instructions of the manufacturer. Briefly, 18 μl of the reagent were diluted with 600 μl serum-free medium and incubated at room temperature. After 5 min 6 μg of a 1:1 mixture of pTriEx-AmbLOXe and pEGFP-C3 (Clontech), which encodes Green Fluorescent Protein (GFP), were supplemented and incubated for additional 15 min. The transfection complex was added to the cell dishes in a dropwise manner. Cells were incubated for 24 hours before being analyzed for transfection efficiency by detection of GFP positive cells in a flow cytometer (FC-500, Beckman-Coulter, Fullerton, Calif., USA). Only cell populations were used in which about 25% GFP positive cells (U2-OS) or 12% GFP positive cells (HaCaT) could be detected. The cells were seeded into a six well plate until they reached confluence. The monolayer was then wounded with a disposable plastic pipet tip (10 μl-100 μl volume). The cells ere incubated in DMEM High Glucose (Biochrom, Berlin, Germany) supplemented with 10% FCS). The scratches were documented by microphotography and incubated for 16 hours. Then the scratches were again photographed and the remaining areas were measured using CellD (Olympus) software program. All experiments were carried out in quadruplicates and repeated at four independent times. Means and standard deviation were calculated and tested for statistical significance with ANOVA followed by Bonferroni's posthoc test.
In order to determine the influence of lipoxygenase inhibitor on the transiently transfected cell populations, cells transfected with empty vector (control) and scratched cell monolayers transfected with vectors containing human 12R LOX and AmbLOXe, respectively, received an overnight treatment with NHGA.

U2-OS cells = assay: Scratch assay for wound closure in transfected U2-OS cells; assay type: cell-based, human; conditions: for perimeter size of remaining scratch area (mean value): U2-OS cell populations transfected; for perimeter size of remaining scratch area (mean value) / wound closure in scratch assay (FIG. 2): after 16 hours incubation; for scratch width reduction: U2-OS cells transfected with expression plasmid, 16 hours incubation; for wound closure in scratch assay (FIG. 2): U2-OS cells transfected
Source text: To compare the effect of epidermal lipoxygenase of human and Axolotl origin, a human cell line, U2-OS was transfected with expression plasmids encoding for the two types of lipoxygenase (pAmbLOXe, phuLOX) in combination with a vector encoding for GFP (pEGFP-C3, Clontech) as a reporter for transfection efficiency. Controls were transfected with empty vector and pEGFP-C3.
as §1
A cDNA fragment coding for full-length AmbLOXe was cloned in frame into the mammalian expression vector pTriEx-1 and transfected together with an expression plasmid for EGFP into the U2-OS cell line to evaluate a possible influence of AmbLOXe expression in a mammalian model system. Only cell populations with a transfection efficiency of about 25% (U2-OS), respectively 12% (HaCaT) were used for all assays and seeded to confluent monolayers which subsequently were wounded with scratches.
The remaining scratch areas photographed after 16 hours incubation were used to determine the influence of AmbLOXe expression on mammalian cell migration. While no AmbLOXe expression could be observed in U2-OS cell populations transfected with an empty vector, and in U2-OS cell populations transfected with huLOX, AmbLOXe expression was detected in U2-OS cell populations transfected with AmbLOXe encoding plasmids. A perimeter size reduction to a mean value of 24806.26 μm in the cell populations transfected with an empty vector was found; while cell populations containing AmbLOXe expressing cells and cell populations containing cells expressing human 12R LOX reduced the photographed scratch area to mean values of 517.46 μm and 2086.86 μm, respectively.

[2] = tested on: HaCaT keratinocyte cell line; assay: HaCaT monolayer scratch assay (cell migration); assay type: cell-based, human; conditions: HaCaT populations transfected; 16 hours incubation; compared to empty vector (p=0.0035) and huLOX (p=0.028) transfected populations
Method: The coding sequence of AmbLOXe was subcloned in frame into the mammalian expression vector pTriEx-1 (Novagen). Plasmids were purified from transformed DH5α using the GenElute plasmid purification Kit (Sigma). Human osteosarcoma cells U2-OS or human spontaneously immortalized keratinocyte cells HaCaT (ATCC) were seeded into 100 mm cell culture dishes and grown over night to 40-50% confluence. Cells were transiently transfected with Fugene6 (Roche, Mannheim, Germany) following the instructions of the manufacturer. Briefly, 18 μl of the reagent were diluted with 600 μl serum-free medium and incubated at room temperature. […] Cells were incubated for 24 hours before being analyzed for transfection efficiency by detection of GFP positive cells in a flow cytometer (FC-500, Beckman-Coulter, Fullerton, Calif., USA). Only cell populations were used in which about 25% GFP positive cells (U2-OS) or 12% GFP positive cells (HaCaT) could be detected. […] Then the scratches were again photographed and the remaining areas were measured using CellD (Olympus) software program. […] Means and standard deviation were calculated and tested for statistical significance with ANOVA followed by Bonferroni's posthoc test. […]
As described for the transfected U2-OS populations cellular migration was determined in HaCaT monolayer scratch assays.

[3] = tested on: Mice having a full thickness skin wound; assay: Full thickness skin wound animal model (injection of transfected murine embryonic fibroblasts); assay type: in vivo; conditions: for wound size: compared to human lipoxygenase, empty vector and untreated groups, C57/BR6 female mice; for wound closure (FIG. 5): determined after day 3 and day 7, transfected murine embryonic fibroblasts
Method: That is, murine embryonic fibroblasts were seeded in cell culture dishes to 50% confluence and were transfected with expression plasmids encoding two different types of lipoxygenase (pAmbLOXe, phuLOX), an empty vector was used as control. After 24 hours, the cells were washed and trypsinated. Cells in an amount of 100,000 cells/ml in PBS were resuspended and 200 μl cell suspension was injected into area adjacent to a wound of a full thickness skin wound. Said full thickness skin wound was prepared in advance using mice (C57/BR6 female) where the back was shaved and the skin was disinfected. Thereafter, a full thickness skin wound was set using a 8 mm biopsy punch, resulting in a 50 mm^2 defect. A control group was prepared not treated with any cell suspension. After day 3 and day 7 a photo was taken from the wound and the reduction of wound size was measured and determined statistically.

For `CC(C)c1ccc2c(c1)c(SC(C)(C)C)c(CC(C)(C)C(=O)O)n2Cc1ccc(Cl)cc1` [MK-886], the Epithelial cell proliferation (epithelial Axolotl cells) was “significantly reduced” and the “effect on the Axolotl epithelial cells compared with NDGA” value (epithelial Axolotl cells; treatment of MK-886) was “equal effect”.

`CC(Cc1ccc(O)c(O)c1)C(C)Cc1ccc(O)c(O)c1` (stereo not drawn) [NDGA] was tested, and the Epithelial cell proliferation (epithelial Axolotl cells) was “significantly reduced”.

For `CC(Cc1ccc(O)c(O)c1)C(C)Cc1ccc(O)c(O)c1` (stereo not drawn) [NHGA], the “scratch area (mean value)” value ([1]; cell populations expressing AmbLOXe, overnight treatment with NHGA) was 4428.33 μm, the “migration behaviour compared to the solvent treated monolayers” value ([1]; cells expressing huLOX, overnight treatment with NHGA) was “no significant differences” and the “migration behaviour compared to the solvent treated monolayers” value ([1]; empty vector transfected cells, overnight treatment with NHGA) was “no significant differences”.

B1: AmbLOXe: epidermal lipoxygenase from axolotl, Seq. ID. Nos. 1 and 2, EMBL Accession No. EU814616; tested by expression plasmid transfection (protein, listed as Ambystoma mexicanum)
chain: MVDEYRIKEDRDLGEILLIRLHKGPFSIFPEDNWYCMYVTVTSPGGVIYHFPCYRWIEGYPTVELAEGTAMLSSASNLHVTLKKQRESDLEQRRKVYRWKVYHPSFPKCIDVANNDELDKDAKYSITKTVHFVINKNVSNIAIKLKGFDGRQESWKSFDELKRVYWTLKTAKSEYVSHHWKEDAFFGYQYLNGPDPTLIKRCNKIPGNFPVTDEMVSYSLGASTSLEKELQKGNIYIVDHKMMEGLRANVLNGKQQYMAAPLCLFYRTPKDEVIPLAIQLNQTPGSETPLFLPSDNEWDWILAKIWVRSTSFAFHQAVSHFLRTHVFAEVFCLATLRQLPMAHPLYKLLVPHLRYTLQINVLARERLIGPGGAFDKNTAVGIAGIAELIKRDMETLKYSTLCLPENLQSREVESLPHFYYRDDGMKIWLAIESYVSGIVDYYYKSEESIQKDPELQAWVAEIFKEGFLERKSSGIPSSLETRVELIKYLTMVIFTCSAEHAAVNSGQFDFLSWMPNGPSTMRQPPPKTKGLATMESVLEALPEVGITTNIMTTVWTLSKEPGDMRPLGTYPDEHFTEEGPKQCIRAFQERLSEISREIEHRNASLPIKYNYMNPKVIENSVSI
In the case of B1, the “perimeter size of remaining scratch area (mean value)” value (U2-OS cells) is reported as 517.46 μm, the scratch width reduction (U2-OS cells) is reported as 89.94% and the “wound closure in scratch assay (FIG. 2)” value (U2-OS cells) is reported as “substantially completed”. For the same molecule, the “measured wound scratch (mean value)” value ([1]; solvent treated cell populations expressing AmbLOXe) was 3388.99 μm, the “remaining scratch perimeter size” value [2] was “significantly smaller” and the wound size ([3]; day 3) was “reduced dramatically”. The wound size ([3]; day 7) was “reduced dramatically” and the “wound closure (FIG. 5)” value [3] was “significant reduction”.

B2: huLOX: human epidermal lipoxygenase (human 12R LOX) expressed from plasmid phuLOX, comparator (protein, UniProt O75342 1-701, looked up)
Arachidonate 12-lipoxygenase, …: MATYKVRVATGTDLLSGTRDSISLTIVGTQGESHKQLLNHFGRDFATGAVGQYTVQCPQDLGELIIIRLHKERYAFFPKDPWYCNYVQICAPNGRIYHFPAYQWMDGYETLALREATGKTTADDSLPVLLEHRKEEIRAKQDFYHWRVFLPGLPSYVHIPSYRPPVRRHRNPNRPEWNGYIPGFPILINFKATKFLNLNLRYSFLKTASFFVRLGPMALAFKVRGLLDCKHSWKRLKDIRKIFPGKKSVVSEYVAEHWAEDTFFGYQYLNGVNPGLIRRCTRIPDKFPVTDDMVAPFLGEGTCLQAELEKGNIYLADYRIMEGIPTVELSGRKQHHCAPLCLLHFGPEGKMMPIAIQLSQTPGPDCPIFLPSDSEWDWLLAKTWVRYAEFYSHEAIAHLLETHLIAEAFCLALLRNLPMCHPLYKLLIPHTRYTVQINSIGRAVLLNEGGLSAKGMSLGVEGFAGVMVRALSELTYDSLYLPNDFVERGVQDLPGYYYRDDSLAVWNALEKYVTEIITYYYPSDAAVEGDPELQSWVQEIFKECLLGRESSGFPRCLRTVPELIRYVTIVIYTCSAKHAAVNTGQMEFTAWMPNFPASMRNPPIQTKGLTTLETFMDTLPDVKTTCITLLVLWTLSREPDDRRPLGHFPDIHFVEEAPRRSIEAFRQRLNQISHDIRQRNKCLPIPYYYLDPVLIENSISI
With B2 the “perimeter size of remaining scratch area (mean value)” value (U2-OS cells) was 2086.86 μm, the scratch width reduction (U2-OS cells) was 56.75% and the “wound closure in scratch assay (FIG. 2)” value (U2-OS cells) was “has not finished yet”. The “wound closure (FIG. 5)” value [3] was “comparable with the control groups”.
